B1: MGC16075 (parent)
chain: AGSRQALSFEVPPCNYDPEKWIQ

Variants of: B1
Assay: protein stability index of a GFP-peptide fusion (GPS, HEK-293T) (PSI 1-6); higher = more stable
Settings: c terminus: native
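Further: lentivirally expressed fusions sorted by FACS into six bins by GFP to DsRed ratio, PSI derived from sequencing read proportions per bin multiplied by bin number.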

Variant	protein stability index
AGSRQALSFEVPPCNWDPEKWIQ [Y16W]	1.47
AGSRQALSFEVPPCNEDPEKWIQ [Y16E]	2.64
AGSRQALSFEVPPCNGDPEKWIQ [Y16G]	3.5
AGSRQALSFEVPPCNLDPEKWIQ [Y16L]	2.04
AGSRQALSFEVPPCNPDPEKWIQ [Y16P]	2.22
AGSRQALSFEVPPCNSDPEKWIQ [Y16S]	1.48
AGSRQALSFEVPPCNCDPEKWIQ [Y16C]	2.17
AGSRQALSFEVPPCNIDPEKWIQ [Y16I]	2.01
AGSRQALSFEVPPCNADPEKWIQ [Y16A]	1.54
AGSRQALSFEVPPCNNDPEKWIQ [Y16N]	2.2
AGSRQALSFEVPPCNMDPEKWIQ [Y16M]	2.03
AGSRQALSFEVPPCNQDPEKWIQ [Y16Q]	2.54
AGSRQALSFEVPPCNHDPEKWIQ [Y16H]	1.46
AGSRQALSFEVPPCNDDPEKWIQ [Y16D]	2.52
AGSRQALSFEVPPCNTDPEKWIQ [Y16T]	2.53
AGSRQALSFEVPPCNRDPEKWIQ [Y16R]	1.24
AGSRQALSFEVPPCNVDPEKWIQ [Y16V]	2.47
AGSRQALSFEVPPCNFDPEKWIQ [Y16F]	1.68
AGSRQALSFEVPPCNKDPEKWIQ [Y16K]	1.61
AGSRQALSFEVPPCNYNPEKWIQ [D17N]	1.51
AGSRQALSFEVPPCNYFPEKWIQ [D17F]	1.57
AGSRQALSFEVPPCNYYPEKWIQ [D17Y]	2.15
AGSRQALSFEVPPCNYRPEKWIQ [D17R]	2.15
AGSRQALSFEVPPCNYTPEKWIQ [D17T]	1.92

Variant	protein stability index
AGSRQALSFEVPPCNYWPEKWIQ [D17W]	1.91
AGSRQALSFEVPPCNYLPEKWIQ [D17L]	1.81
AGSRQALSFEVPPCNYEPEKWIQ [D17E]	2.07
AGSRQALSFEVPPCNYVPEKWIQ [D17V]	2
AGSRQALSFEVPPCNYIPEKWIQ [D17I]	2.17
AGSRQALSFEVPPCNYCPEKWIQ [D17C]	1.29
AGSRQALSFEVPPCNYQPEKWIQ [D17Q]	2.18
AGSRQALSFEVPPCNYPPEKWIQ [D17P]	1.74
AGSRQALSFEVPPCNYMPEKWIQ [D17M]	1.9
AGSRQALSFEVPPCNYAPEKWIQ [D17A]	2.18
AGSRQALSFEVPPCNYGPEKWIQ [D17G]	2.29
AGSRQALSFEVPPCNYHPEKWIQ [D17H]	2.12
AGSRQALSFEVPPCNYKPEKWIQ [D17K]	3.23
AGSRQALSFEVPPCNYSPEKWIQ [D17S]	1.49
AGSRQALSFEVPPCDYDPEKWIQ [N15D]	1.78
AGSRQALSFEVPPCPYDPEKWIQ [N15P]	2.68
AGSRQALSFEVPPCSYDPEKWIQ [N15S]	1.35
AGSRQALSFEVPPCLYDPEKWIQ [N15L]	1.99
AGSRQALSFEVPPCMYDPEKWIQ [N15M]	1.84
AGSRQALSFEVPPCCYDPEKWIQ [N15C]	2.23
AGSRQALSFEVPPCEYDPEKWIQ [N15E]	1.58
AGSRQALSFEVPPCQYDPEKWIQ [N15Q]	3.17
AGSRQALSFEVPPCYYDPEKWIQ [N15Y]	2.7
AGSRQALSFEVPPCIYDPEKWIQ [N15I]	2.06

Variant	protein stability index
AGSRQALSFEVPPCGYDPEKWIQ [N15G]	2.03
AGSRQALSFEVPPCWYDPEKWIQ [N15W]	2.14
AGSRQALSFEVPPCAYDPEKWIQ [N15A]	1.71
AGSRQALSFEVPPCRYDPEKWIQ [N15R]	2.62
AGSRQALSFEVPPCHYDPEKWIQ [N15H]	1.28
AGSRQALSFEVPPCKYDPEKWIQ [N15K]	2.53
AGSRQALSFEVPPCFYDPEKWIQ [N15F]	1.96
AGSRQALSFEVPPCTYDPEKWIQ [N15T]	1.64
AGSRQALSFEVPPCNYDSEKWIQ [P18S]	1.78
AGSRQALSFEVPPCNYDLEKWIQ [P18L]	2.72
AGSRQALSFEVPPCNYDTEKWIQ [P18T]	1.82
AGSRQALSFEVPPCNYDMEKWIQ [P18M]	1.91
AGSRQALSFEVPPCNYDGEKWIQ [P18G]	2.41
AGSRQALSFEVPPCNYDCEKWIQ [P18C]	2.3
AGSRQALSFEVPPCNYDREKWIQ [P18R]	2.36
AGSRQALSFEVPPCNYDWEKWIQ [P18W]	1.1
AGSRQALSFEVPPCNYDIEKWIQ [P18I]	1.92
AGSRQALSFEVPPCNYDVEKWIQ [P18V]	1.99
AGSRQALSFEVPPCNYDYEKWIQ [P18Y]	1.87
AGSRQALSFEVPPCNYDKEKWIQ [P18K]	1.79
AGSRQALSFEVPPCNYDFEKWIQ [P18F]	1.6
AGSRQALSFEVPPCNYDNEKWIQ [P18N]	2.15
AGSRQALSFEVPPCNYDDEKWIQ [P18D]	1.93
AGSRQALSFEVPPCNYDQEKWIQ [P18Q]	2.03

Variant	protein stability index
AGSRQALSFEVPPCNYDHEKWIQ [P18H]	1.84
AGSRQALSFEVPPCNYDEEKWIQ [P18E]	2.79
AGSRQALSFEVPPCNYDAEKWIQ [P18A]	1.62
AGSRQALSFEVPPCNYDPIKWIQ [E19I]	1.84
AGSRQALSFEVPPCNYDPSKWIQ [E19S]	2.2
AGSRQALSFEVPPCNYDPMKWIQ [E19M]	1.52
AGSRQALSFEVPPCNYDPTKWIQ [E19T]	1.97
AGSRQALSFEVPPCNYDPGKWIQ [E19G]	2.16
AGSRQALSFEVPPCNYDPPKWIQ [E19P]	2.28
AGSRQALSFEVPPCNYDPAKWIQ [E19A]	1.22
AGSRQALSFEVPPCNYDPRKWIQ [E19R]	2.14
AGSRQALSFEVPPCNYDPDKWIQ [E19D]	2.54
AGSRQALSFEVPPCNYDPQKWIQ [E19Q]	2.72
AGSRQALSFEVPPCNYDPVKWIQ [E19V]	1.86
AGSRQALSFEVPPCNYDPYKWIQ [E19Y]	2.07
AGSRQALSFEVPPCNYDPHKWIQ [E19H]	2.64
AGSRQALSFEVPPCNYDPLKWIQ [E19L]	3.01
AGSRQALSFEVPPCNYDPFKWIQ [E19F]	2.33
AGSRQALSFEVPPCNYDPWKWIQ [E19W]	2.47
AGSRQALSFEVPPCNYDPKKWIQ [E19K]	3.27
AGSRQALSFEVPPCNYDPCKWIQ [E19C]	1.76
AGSRQALSFEVPPCNYDPERWIQ [K20R]	1.98
AGSRQALSFEVPPCNYDPECWIQ [K20C]	2.26
AGSRQALSFEVPPCNYDPEWWIQ [K20W]	3.58

— the supplement of paper PMC10567573
